Reference: patent publication US10653749B2, “Targeting GIV-GEF-GI signaling for treating diverse diseases” (The Regents of the University of California, priority 2015, dated 2020)

Columns and labels:
[1] = system: MDA MB231 cells; test: Transwell tumor cell invasion assay through basement membrane extract; type: cell-based; conditions: compared to TAT-control peptides; 50 nM EGF
Procedure: Briefly, after a serum starvation overnight, MDA MB231 cells were first transduced with TAT peptides for 30 min as above. Transduced cells were trypsinized, counted, and placed in a Corning transwell permeable support coated with Cultrex Basement Membrane Extract (7×10^4 cells per well). Media without FBS but containing EGF ligand (50 nM) was placed within the bottom chamber of each well to trigger directional 3D invasion. As done in the 2D migration assays, transduction with TAT peptides was repeated one more time ˜10-12 h into the assay (total of two times). At 22-24 h, a Q-tip was used to meticulously remove all cells from the surface of the permeable membrane facing the upper chamber. […] To quantify cell invasion (expressed as number of invasive cells/high power field) ˜10-12 random fields per membrane insert per condition were analyzed for number of crystal violet stained cells. […]
Invasion assays were performed using Corning® Transwell plates according to the manufacturer's protocol. Transduced cells were trypsinized, counted and placed in a Corning transwell permeable support coated with Cultrex® Basement Membrane Extract (7×10^4 cells/well). […] Cell invasion (expressed as number of invasive cells/high power field) was quantified by analyzing ˜10-12 random fields/membrane insert/condition for number of crystal violet stained cells.

[2] = system: L6 myotubes; test: Uptake of TAT peptides and actin staining in L6 myotubes (confocal); type: cell-based, rat; conditions: 0.2% FBS overnight
Description: Dilutions of antibodies are as follows: anti-phospho-GIV-Tyr1764 (1:200) (Ventana/Roche and Spring Biosciences); anti-HA (1:300) (Covance); anti-GFP, mouse anti-InsRβ and mouse anti-phospho-IRS1 (1:200) from Santa Cruz Biotechnologies; DAPI 1:1,000 (Molecular Probes); Secondary goat anti-rabbit (594) and goat anti-mouse (488) Alexa conjugated antibodies (1:500) from Molecular Probes. Coverslips were mounted with ProLong Gold (Life Technologies). Cells were imaged on a Leica SPE confocal microscope using a 63× oil objective using 488, 561 and 405 laser lines for excitation. Images were scanned using a line-average of 3. All images were processed using ImageJ software and assembled into figure panels using Photoshop and Illustrator (Adobe).
Transfection was carried out with GeneJuice (Novagen) for DNA plasmids or Oligofectamine (Invitrogen) for siRNA oligos according to manufacturer's protocols. Silencer negative Control scrambled (Scr) siRNA used as control was purchased from Ambion and the previously validated (Enomoto et al., 2005) GIV siRNA sequence used was custom-ordered from Dharmacon. For TAT-construct transduction, cells were incubated with 300-800 nM of the TAT-proteins for 30 min at 37° C. prior to three washes with PBS and addition of fresh growth media. […]

[3] = system: L6 myotubes; test: Fluorometric 2-deoxyglucose uptake assay after insulin stimulation; type: cell-based, rat; conditions: for insulin-stimulated glucose uptake in the basal state: L6 myotubes without PA; for reversal of PA-induced IR (insulin stimulated glucose uptake): PA-treated L6 myotubes
Procedure: Transfection was carried out with GeneJuice (Novagen) for DNA plasmids or Oligofectamine (Invitrogen) for siRNA oligos according to manufacturer's protocols. Silencer negative Control scrambled (Scr) siRNA used as control was purchased from Ambion and the previously validated (Enomoto et al., 2005) GIV siRNA sequence used was custom-ordered from Dharmacon. For TAT-construct transduction, cells were incubated with 300-800 nM of the TAT-proteins for 30 min at 37° C. prior to three washes with PBS and addition of fresh growth media. For assays involving insulin (Novagen) stimulation of TAT-treated cells, such stimulation was carried out 90 min after transduction.
Unless otherwise indicated, serum starvation of cells for use in experiments involving insulin stimulation was carried out by growing cells overnight in the presence of no serum (i.e., 0% FBS) in the case of Cos7 and L6 cells, or in the presence of 0.2% FBS in the case of HeLa cells. To induce IR, cells were pre-treated with Sodium Palmitate (PA; Sigma-Aldrich) (0.5 mM, stock solution at 5 mM/5% FFA-free BSA in ethanol) or vehicle control (5% FFA-free BSA in ethanol) for 16 h. To reverse IR with TZDs, cells were treated with 50 μM Pioglitazone (Pio) (Sigma-Aldrich) or DMSO (vehicle control) for 18 h prior to stimulation with 100 nM insulin. Treatment with PKCθ pseudo-substrate inhibitor (Santa Cruz Biotechnologies) was performed at 10 μM for 16 h.
Glucose uptake assays were performed without the use of radioisotopes as described previously (Yamamoto et al., 2006). HeLa and L6 cells grown in 6-well plates were stimulated with insulin in KRH Buffer [50 mM HEPES, 137 mM NaCl, 4.7 mM KCl, 1.85 mM CaCl2, 1.3 mM MgSO4, and 0.1% (w/v) BSA-FFA free, pH 7.4]. Cells were incubated with 1 mM 2-deoxyglucose (2-DG) for 20 min, washed, and subsequently lysed with 0.1 N NaOH. The lysates were transferred into eppendorf tubes and samples were incubated in a water bath maintained at 80° C. for 45 min to degrade endogenous NAD(P)H and NAD(P)^+. An equal volume each of 0.1 N HCl and Triethanolamine (200 mM TEA, pH 8.1) buffer were added to each tube. Samples were subsequently mixed with assay solution [50 mM TEA, 0.02% BSA-FFA free, 10 μM NAD(P)^+, 0.2 U/ml Diaphorase, 6 nM Resazurin sodium, 15 U/ml G6PDH (Santa Cruz Biotechnologies)] and incubated at 37° C. for 90 min. Fluorescence intensity (λex=550 nM, λem=590 nM) was determined using a Tecan Inifinite M1000 PRO and normalized to total protein, as determined using BCA assay (Thermo Scientific).

Molecule | invasion through basement membrane matrix in response to EGF gradient [1] | actin stress-fiber formation in L6 myotubes [2] | insulin-stimulated glucose uptake in the basal state [3] | reversal of PA-induced IR (insulin stimulated glucose uptake) [3] | reversal of PA-induced IR (insulin stimulated glucose uptake) ([3]; listed as GIV-CT-WT) | effectiveness in reversing PA-induced IR compared with Pio ([3]; ~800 nM of WT peptide)
TAT-GIV-CT-WT: Recombinant cell-permeable fusion of TAT-PTD, His and HA tags, linker and human GIV C-terminus (aa 1660-1870), wild type; SEQ ID NO: 2 (protein) MRGSHHHHHHGMASMTGGQQMGRDLYDDDDKDRWGSKLGYGRKKRRQRRRGGSTMSGYPYDVPDYAGSMGGSGHSGETLESRHHKIKTGSPGSEVVTLQQFLEESNKLTSVQIKSSSQENLLDEVMKSLSVSSDFLGKDKPVSCGLARSVSGKTPGDFYDRRTTKPEFLRPGPRKTEDTYFISSAGKPTPGTQGKIKLVKESSLSRQSKDSNPYATLPRASSVISTAEGTTRRTSIHDFLTKDSRLPISVDSPPAAADSNTTAASNVDKVQESRNSKSRSREQQSS | significantly enhanced | enhancement | unaffected | effectively reverse | effectively reversed | as effective as 50 μM Pio
TAT-GIV-CT-FA: GEF-deficient F1685A mutant of the TAT-GIV-CT peptide, dominant-negative; SEQ ID NO: 3 (protein) MRGSHHHHHHGMASMTGGQQMGRDLYDDDDKDRWGSKLGYGRKKRRQRRRGGSTMSGYPYDVPDYAGSMGGSGHSGETLESRHHKIKTGSPGSEVVTLQQALEESNKLTSVQIKSSSQENLLDEVMKSLSVSSDFLGKDKPVSCGLARSVSGKTPGDFYDRRTTKPEFLRPGPRKTEDTYFISSAGKPTPGTQGKIKLVKESSLSRQSKDSNPYATLPRASSVISTAEGTTRRTSIHDFLTKDSRLPISVDSPPAAADSNTTAASNVDKVQESRNSKSRSREQQSS | virtually abolished | disrupted | significantly inhibited | not |  | 
